Test results published in paper PMC3048740.

Key:
YFP-Stim1 (human) = YFP-Stim1 (human) (UniProt Q13586); experiment: FRET or BRET
CFP-Stim1 (human) = CFP-Stim1 (human) (UniProt Q13586); experiment: FRET or BRET

Substance	FRET reduction against WT-Orai3 with Stim1 (YFP-Stim1 (human))	FRET reduction against WT-Orai3 with Stim1 (CFP-Stim1 (human))
CFP-Orai3-L292S (from UniProt Q9BRQ5 1-295) (natural protein)	20%	–
YFP-Orai3-L285S (from UniProt Q9BRQ5 1-295) (natural protein)	–	35%
